Data set [1] has as its target T1, DtHNL1 (Davallia tyermanii, UniProt A0A1C9V3S9).
T1 construct: gene HNL1; dimer; about 20 kDa
The experiment in a line: X-ray crystal structure, soaking. To be noted: active site. Format: binding.

Data set [2] has as its target T1, DtHNL1. As to the kind of experiment: benzaldehyde formation at […] nm, Michaelis-Menten fit. Format: biochemical. To be noted: cleavage direction; 50 mM sodium citrate-phosphate pH 5.0, 25 °C.
For data set [3], the target named is Davallia tyermannii hydroxynitrile lyase 1 (DtHNL1) (Davallia tyermannii). The experiment in a line: crystal structure; SeMet-SAD structure at 1.85 Å and native crystals soaked with 4-hydroxybenzaldehyde, benzoic acid or (R)-mandelonitrile; sitting drop vapor diffusion, 16 °C, protein in 10 mM Tris-HCl pH 8.0.
Another data set relates to O=Cc1ccccc1. The experiment in a line: GC of (R)-mandelonitrile formed, initial rates, Michaelis-Menten fit. The note with it: apparent, synthesis direction, biphasic MTBE/buffer 2:1, 2 M HCN, pH 4.0, 10 °C. Format: biochemical, Davallia tyermanii.
For another data set, the system named is N#C[C@H](O)c1ccccc1. As to the kind of experiment: purified protein. Format: biochemical, Davallia tyermanii. The note with it: cleavage direction, 50 mM sodium citrate-phosphate pH 5.0, 25 °C.
Where [4] appears, read: crystal soaked with (R)-mandelonitrile.

This note sets out measurements from paper PMC5413884, “Enzyme discovery beyond homology: a unique hydroxynitrile lyase in the Bet v1 superfamily” (Scientific Reports, 2017).

The Km is the substrate concentration at which the rate is half of its maximum. A word on the stoichiometry N: it is the number of molecules, sites or subunits per partner or assembly. By kcat is commonly meant the maximal rate divided by the concentration of active sites.

For `N#C[C@H](O)c1ccccc1` [(R)-mandelonitrile, (2R)-2-hydroxy-2-phenylacetonitrile], the “X-ray crystal structure, soaking” value at DtHNL1 [1] (setting [4]) is 5E4B (DtHNL1-MXN). In addition, the Km at DtHNL1 [2] was found to be 300 ± 30 µM.

Regarding `O=Cc1ccccc1` [benzaldehyde], the “X-ray crystal structure, soaking” value on DtHNL1 [1] (setting [4]) was “Bound benzaldehyde (cyan, right) and (R)-mandelonitrile (yellow, left) as observed in a crystal”.

With `O=C(O)c1ccccc1` [benzoic acid], the “X-ray crystal structure, soaking” value at DtHNL1 [1] is given as 5E4D (DtHNL1–BEZ).

Molecule “Davallia tyermannii hydroxynitrile lyase 1 (DtHNL1) (enzyme)” showed a stoichiometry N in data set [3] of 2.

On to DtHNL1 (Davallia tyermanii), for which, in the data set on O=Cc1ccccc1, the Km was 14000 ± 2000 µM and the kcat turned out to be 70 ± 7 s⁻¹.

Regarding DtHNL2 (Davallia tyermanii), in the data set on N#C[C@H](O)c1ccccc1, the Km worked out at 450 ± 50 µM and the kcat stood at 156 ± 3 s⁻¹.

Turning to DtHNL3 (Davallia tyermanii), in the data set on N#C[C@H](O)c1ccccc1, the Michaelis constant (Km) was 750 ± 80 µM and the turnover number (kcat) stood at 356 ± 8 s⁻¹.

On to DtHNL4 (Davallia tyermanii), for which, in the data set on N#C[C@H](O)c1ccccc1, the Km was determined as 630 ± 60 µM and the kcat worked out at 272 ± 5 s⁻¹.
